From the DeepSol protein solubility set

Assay: soluble on expression in E. coli; label from the status in PepcDB or PDB records

Sequence | soluble on expression in E. coli
MLRTQFEEELLNLHNQFYEMGMMVSSAVHKSVKAYINHDKKLAQEVIDRDIEINDMEVKLEKKSFEMIALQQPVTTDLRMIITVMKASSDLERMADHAVSIAKSTIRLKGETRIPEIEKEISDMSDYVKKMVDNVLIAYVKTDQKDARMIAQMDDRTNEYFDSIYKHAVEAMKANPETVISGTDYLHVAQYLERIGDYVTNICEWIVYLATGKITELNSNRDEQF | not soluble
MGSDKIHHHHHHMNSPKNSLYEEKSGHYYNAVNPNLLKHIKKEWKEVLDIGCSSGALGAAIKENGTRVSGIEAFPEAAEQAKEKLDHVVLGDIETMDMPYEEEQFDCVIFGDVLEHLFDPWAVIEKVKPYIKQNGVILASIPNVSHISVLAPLLAGNWTYTEYGLLDKTHIRFFTFNEMLRMFLKAGYSISKVDRVYVDHKMYEPLIEELYGICKKYRLGSGFMAETVVFQYIIEAEKSQL | not soluble
GMKLLLTRPEGKNAAMASALDALAIPYLVEPLLSVEAAAVTQAQLDELSRADILIFISTSAVSFATPWLKDQWPKATYYAVGDATADALALQGITAERSPADSQATEGLLTLPSLEQVSGKQIVIVRGKGGREAMADGLRLRGANVSYLEVYQRACPPLDAPASVSRWQSFGIDTIVVTSGEVLENLINLVPKDSFAWLRDCHIIVPSARVETQARKKGLRRVTNAGAANQAAVLDALGM | soluble
MSLNKTKDIAASPLCFVSPYPQLAKAAEALVAQLDYAVTIHQTTLNRILDELPLLESRGHQVLISRGGCAEILKKHSKLPVVEIKMSGYDILDALIPFKGQKGTVGIVGFSSVIKGCARVAEQLNINYKIFTLQGNDKETISCLKRQLASTPLDCIVGDTVCQDYFSPLGSQFRLLDSSPASITEALEEARSLYLAFRSQLLERHHLQLILDQFDKAVITLDDTGALLHYNKYASQLFKINASGEIYDASFLKQVLHQERHTLREGKTVSAKVVDTPQGAMVVNLYPVFAARQLSRVVLTMQTVSSLQGAEHHVRRQELSRRGLSAREGHHHHHH | soluble
MTPLRVFRKTTPLVNTIRLSLLPLAGLSFSAFAAQVNIAPGSLDKALNQYAAHSGFTLSVDASLTRGKQSNGLHGDYDVESGLQQLLDGSGLQVKPLGNNSWTLEPAPAPKEDALTVVGDWLGDARENDVFEHAGARDVIRREDFAKTGATTMREVLNRIPGVSAPENNGTGSHDLAMNFGIRGLNPRLASRSTVLMDGIPVPFAPYGQPQLSLAPVSLGNMDAIDVVRGGGAVRYGPQSVGGVVNFVTRAIPQDFGIEAGVEGQLSPTSSQNNPKETHNLMVGGTADNGFGTALLYSGTRGSDWREHSATRIDDLMLKSKYAPDEVHTFNSLLQYYDGEADMPGGLSRADYDADRWQSTRPYDRFWGRRKLASLGYQFQPDSQHKFNIQGFYTQTLRSGYLEQGKRITLSPRNYWVRGIEPRYSQIFMIGPSAHEVGVGYRYLNESTHEMRYYTATSSGQLPSGSSPYDRDTRSGTEAHAWYLDDKIDIGNWTITPGMRFEHIESYQNNAITGTHEEVSYNAPLPALNVLYHLTDSWNLYANTEGSFGTVQYSQIGKAVQSGNVEPEKARTWELGTRYDDGALTAEMGLFLINFNNQYDSNQTNDTVTARGKTRHTGLETQARYDLGTLTPTLDNVSIYASYAYVNAEIREKGDTYGNLVPFSPKHKGTLGVDYKPGNWTFNLNSDFQSSQFADNANTVKESADGSTGRIPGFMLWGARVAYDFGPQMADLNLAFGVKNIFDQDYFIRSYDDNNKGIYAGQPRTLYMQGSLKF | soluble
MFKHKKNEARNYSKMRESRYEYGTILKAHAAFVEIVTRPAPHRDNLPFNMSTLSVLIETSSCSWGMLASAHGDRTIGIILRAIVSFCNAHLGQSANNQLLVFAYGRNVDNKMIYSSTRCEDRNASFLVVKRLRELLSSDALTNDATIGAPLGPALAHAFCHMKKDSRVVTADPCDDSLGPQTTSEQSETASEKATNRAVVISITPIMGSEHGSLMNLFFSAAKQSICVDVVSMGDDFTGGILQQAADITGGSFLHAKKPQTLLKILMTNMLTDPTHRAVFSKLSHNSVDYRASCACHHQLVSSGWVCSICLSVLCQYTPICKVCKAAFTIANLPIKPNRKRAIRN | not soluble
MGSDKIHHHHHHMTGIVTANWWTSLIYRVFVRTACLRAGRGLLPNIWEWLWRLSCNIIEGPVDITIHNRPAIVNFGYTYPIYMRCYPELNAPLVELTYQCWRSRGTAICIVDVGAAVGDTMLLLHSNLPEAVGSFVCIEGDQEFYRYLQHNLGHMTEGRLINVVVADQETEVSDLVRIHTGTASAQGERTRGASTLSAVVTEEIDLIKIDVDGFDGRVLLGAEDLLKRCRPLVIFEWHPSLCRQTGNNWTDHFDVLARCGYSRCLWFTKFGHFSHFSFGHCREEIDTLAEYCMSDVVKDWHYDVIALHDDSDLSLLLLSQLGFAKARPSRY | not soluble
MRADVKPVTVKLVDSQATMETRSLFAFMQEQRRHSIMFGHQHETTQGLTITRTDGTQSDTFNAVGDFAAVYGWDTLSIVAPKAEGDIVAQVKKAYARGGIITVSSHFDNPKTDTQKGVWPVGTSWDQTPAVVDSLPGGAYNPVLNGYLDQVAEWANNLKDEQGRLIPVIFRLYHENTGSWFWWGDKQSTPEQYKQLFRYSVEYLRDVKGVRNFLYAYSPNNFWDVTEANYLERYPGDEWVDVLGFDTYGPVADNADWFRNVVANAALVARMAEARGKIPVISGIGIRAPDIEAGLYDNQWYRKLISGLKADPDAREIAFLLVWRNAPQGVPGPNGTQVPHYWVPANRPENINNGTLEDFQAFYADEFTAFNRDIEQVYQRPTLIVK | soluble
MRAEFVNPFLASLMNVLKTMASLELKPQKPRIKKDEIARGDVSGLIGMIGPTTRGSMSITFDESLALEIMQNMLGERPNGLNEEVTDMVGEITNMVTGGAKRILAESGFDFDMATPVVVSGRGHTIRHKCEGAIILMPFSSPWGNAFIEICFE | not soluble
IHVNSKEEAIISLVDVVSKEGYLIDKNQFLKDVLKREETLSTYIGHGIGLPHSQSVGVKNSCITIGKLDTPIEWTEEGEKVDLIFLISVTKDNENNLHLKILSKLARLLMHESFRNQIRCSDEQTVYNLIKEKIEE | not soluble
MGSDKIHHHHHHMSIICLALAGCAVEKTEVRTPTFDEQLRPAPPSYANGSIWQASTTGLAVDHKARSRGDIITVLIVEQASASKEATTDTERKAEVSASVPYLMGLEKSSTLFSKLTNANPNNLLGASTNSKYEGSGATTRKENLLATMTAKITDVLPNGNFLIEGRRNVKVNNEDQILVLQGTIRPRDVSPDNTISSTMIADARISYTGNGVISDRQRPGWLMNILDYIWPF | not soluble
MLVPLYDVMCRALGINGKTAGSAYSGEQQVDVGREVKVQFMTSNNIDMVWEFRSAGDQLVVHPGAVNQMVFYARNPSDKPMTAQAIPSIAPAEAAAYFHKTECFCFTQQVLQPGESIEMPVRFIVDRDLPKDVRHVTLAYTLFDI | soluble
MGSDKIHHHHHHHPHSFVDLKNKVLVDGTQLKGFQMEWTMDEIASAELIYEVKNNPDHQAAKKSITAEMEQTAIENHYFSYLYNAKDQPLKFSVKPSNTTFRIAGNRVVFYITFYLSKPYDLKNNAIRFYTYEPSYYMAMEYNNQQDLSINSSECKAKLTQPNVNNSLRLYASSLDKNQKPNMPDGEDNSLGAQFAQTVEVVCE | not soluble
MGSDKIHHHHHHMLSRTADHLYWMARYIERAENMARVLDVTYNMSLVPNASQSETTLWEPALQIAGGVDSYRQEYGEVTAGGVVRFLAMDTKNPSSIYSTLRSARENARSVRVTLSAETWENINALWLEFSQFVGMDLMQKGLGEFCDWVKSRSHLFRGVSFGTMLRDDAFRFLRLGTFIERADNTARLLDVKYHLLLPSGEEVGGAVDYYEWSAILRAVSAFHAYQKVFNDAIEPWKVAELLVLREDMPRSLHACFSEITPILDQLNGRHSSECRRLAGELHARLRYGRMTDIFQGGLHEFLTDFITSNNNLGAEIQRTFLNAPINGLAAETE | not soluble
MGSDKIHHHHHHMLSLSKPLQEFYRLDKCLSKHGTRFEFVNDKEIICSPDESNTHTFVILEGVVSLVRGDKVLIGIVQAPFIFGLADGVAKKEAQYKLIAESGCIGYRLSSSQTLAIIEQNQLWREAFCWIVWKSQVLELRDKQLIGNNSYDQIRATLMTMIEWDEELRSRIGVMNYIHQRTRVSRSVVAEVLAALRKGNYIEMNKGKLISINRLPSEY | not soluble
MSLSSANGGHVDQSDHLALLPPNVRKKGRPTLVLDLDATLFYTSAELLNTPLDYFDMGEESTYRYLYLRPYALDFLGWASTVFEVIIWTAAMESYAEPRIRATEIDRYADVVLYRGACDMIDGSLVKNLAKLGRPLSDMIIVDDNPVSYALNVELAYPIPPFSGEEDDLELLRLVPILRKVLELSSLKRGIYKTIFSEGHHHHHH | soluble
MISVMQQMINNDSPEDSKESITSVQQTPFFWPSAAAAIPSIQGESRSERESETGSSPQLAPSSTGMVMPGTAGMYGFGPSRMPTANEFGMMMNPVYTDFYQNPLASTGWYSYGQPYQFTANYSIPSLDGNLSDITIPTTAGSSAATTPNAAMHLPWAISHDGKKKRQPYKKDQISRLEYEYSVNQYLTNKRRSELSAQLMLDEKQVKVWFQVCYRQYSAESLEIINVNFYLMS | not soluble
MKNLPIGGVWKGKVKLHSNSPAQDYFANITLNTLDPNHIDVFFPEFAHATPRVQLDLHPTGSVNGSNYAQDLTMLDMCLYDGFNGNAISYEIMLKDEGRPAAGRRDGYFSIYRQGGTTTDEGERIDYRVKMYNPETGGQIDVRNNENMVWNSINLKRVRPVVLPGIRYAVMCVPTPLTLAVDKFSVMDKQAGYYMGKLSVIFTPSLPTIN | not soluble
MNKPLMSKATAVWLIDNTTLSFRQIADFCGMHELEVQGIADGDVATGVKGFDPVANNQLDAIEIEKGQRDPLYKMKLKFNPAAVGEEKRRGPRYTPLSKRQDRPAAILWLVKFHPELSDGAIAKLVGTTKPTIQSIRERTHWNIGSIQPIDPVALGLCRQTELDAAVQQAARRKAAEGVVMSDDERRKLVSTEQSLSMPDEPRMPSGLEQFGRSEEEKRPADFSDADSFFNLPHGDDADEEEDEDPARAAALEHHHHHH | soluble
AVVETAAMFDGTEGTLGRSMTLEDMELMTWAIFQSGQKIPAKVYSKILAQWDLYSYQMAVFHEAYDILLTPTVADVTPKHGQFALSESLQNQLKQIAYFDWPKQQELIWAMFADSLDWTSFTQRANLTGQPSISLPIYRNADGLSLGVQLTSAKGREDLLLLLAKQMEE | not soluble
MSLKSAKDVQTITKITIDFGGEEIFLDFDEVTKHYLNQPLSAKTVFALTKELTQVLYNAGYVTSAIGLKSSKIKNGEVEFVVLWGKVNDILVEEQQASLFKDKAMLFVLPNLKGKVLRIYDVDQLIEILNTGNKTAKVNVIAANEKSMSNLSIERHRTSYPQVSLSLNNSGEGSNAEGRNQATLSISWSDLLGTNDRWSFSTGYRIYKDRQANRQQNYSLSYTQPFSFSTLDIKLSYSGYKKQLRGIHTHGSSGETKQASFKLSHTLLRNKDMILSLYGELEFKRRLSYFGDIRIGKYHNNKLNIGLSYVTNLGHGKLYSDLSYSNGLRWFNANHSAYNSHRDKTLRLVSGSINWQRPFVFFNRGMSYQFRLGAQYGFDSLYGENQFSIGDEYTVRGFKGGAGSGDRGFYISQTVTIPFYPQKSYLSYINPFLGIDIGKVHAKRPHHVVDTFAGFAFGVKAQIKSLALSLTYAKPINGVGTFEESNKKSVFYFTGSVSFEGHHHHHH | not soluble
AIASKKKGLSFDDKRTRMLEIFTESKTFFTLKELEKVAPKQKGIVLPSVKEVLQSLVDDDVVSSDKCGTQTVYWCLPSQAVQKKRCRIASLTEHLQAKYALRQQLFQRRDELRNSHQDTEERTHFIEQINELESKLKLIQEQLDIYKESDPEVLAEIRNVSHIAWEATNRWTDNIFSIRSWVTSKFGLPSSEFDKNFGLSEDFDYI | soluble
